{"source": "paper PMC11728977", "about": "“Crystallographic, kinetic, and calorimetric investigation of PKA interactions with L-type calcium channels and Rad GTPase” (The Journal of Biological Chemistry, 2024)", "key": {"[1]": {"test_system": "C[C@H](NC(=O)CN)C(=O)NCC(=O)N[C@@H](CCCNC(=N)N)C(=O)N[C@@H](CCC(=O)O)C(=O)N[C@@H](CCCNC(=N)N)C(=O)N[C@@H](CC(=O)O)C(=O)N[C@@H](CCCNC(=N)N)C(=O)N[C@@H](CCCNC(=N)N)C(=O)N[C@@H](CCCNC(=N)N)C(=O)NCC(=O)N[C@@H](CO)C(=O)N[C@H](C(=O)N1CCC[C@H]1C(=O)N[C@@H](Cc1c[nH]c2ccccc12)C(=O)O)[C@@H](C)O", "assay": "purified protein, by the assay type", "settings": "other: ADP-Glo; 3 nM PKAc, 1 mM ATP, 5 mM Mg2+, substrate 0-256 μM, room temperature 30 min; Michaelis-Menten fit; mean ± SD of n = 3 or 4; pH 7.4", "procedure": "(§1) We used enzyme kinetics to investigate the activity of catalytic subunit of PKA (PKAc) toward the three target sites within the C terminus of CaV1.2. We performed discontinuous kinase assays using an ADP-GloMax Assay kit.\n(§2) Kinase assays were conducted using an ADP-Glo Kinase Assay Kit (Promega). […] Therefore, we performed assays with excess ATP (1 mM) and Mg^2+ (5 mM) to saturate PKAc prior to substrate binding. Reagents were prepared as described in the kit, aliquoted, and frozen at −20 °C prior to use. Reactions were conducted in 384-well solid white polystyrene microplates (Corning). Peptide substrates and EFPreIQ were dissolved and/or diluted to 800 μM using 50 mM Hepes (pH 7.4), 150 mM KCl, 5 mM MgCl2, and 4 mM TCEP. […] For peptides lacking tryptophan, the amount of volume needed to achieve a concentration of 800 μM was calculated prior to dissolving. The peptides/substrate was 2-fold serially diluted using the same buffer to create 11 reactions per curve ranging from 0 to 256 μM. ATP was added to each reaction to achieve a final concentration of 1 mM. Reactions were initiated by the addition of thawed PKAc at a final concentration of 3 nM at a final well volume of 20 μl. After allowing reactions to occur at room temperature for 30 min, 3 × 5 ml from each reaction in a curve was taken and mixed with 5 ml ADP-Glo Reagent for a total of three technical replicates per biological replicate. After 40 min, 10 ml of kinase detection reagent was added to each technical replicate and, after waiting 60 min, relative luminescence unit were measured using a VICTOR X4 Multilabel Plate Reader (PerkinElmer).\n(§3) The relative luminescence unit values were converted to specific activity values via interpolation of a standard curve that was created in accordance with the manufacturer’s protocol. The three technical replicates were averaged to calculate a biological replicate value and plotted against peptide concentration using GraphPad 9 (Prism) software (https://www.graphpad.com/updates/prism-900-release-notes). Technical replicate values resulting from experimental error were removed from the dataset and subsequent averaging. […] The Michaelis–Menten kinetics fitting function was used to generate a nonlinear regression to calculate both a Km constant and Vmax value for each biological replicate curve. These Km constant and Vmax values were averaged and SDs are reported. Figures displaying data points and Michaelis–Menten curves depict the average specific activity values calculated from all biological replicates in the three or four experiments (n = 3 or n = 4) per peptide (n = 4 for Ser1981 and Ser272 peptides, n = 3 for all others)."}, "[2]": {"test_system": "CC(C)C[C@H](NC(=O)[C@H](Cc1c[nH]cn1)NC(=O)[C@H](Cc1ccccc1)NC(=O)[C@H](CO)NC(=O)[C@H](C)NC(=O)[C@H](CCCNC(=N)N)NC(=O)[C@H](CCCNC(=N)N)NC(=O)CNC(=O)[C@H](CC(C)C)NC(=O)[C@H](CO)NC(=O)[C@H](C)NC(=O)[C@H](CO)NC(=O)[C@H](CCCNC(=N)N)NC(=O)[C@H](CC(C)C)NC(=O)[C@H](Cc1ccccc1)NC(=O)CNC(=O)[C@@H](N)CCCNC(=N)N)C(=O)O", "assay": "purified protein, by the assay type", "settings": "other: ADP-Glo; 3 nM PKAc, 1 mM ATP, 5 mM Mg2+, substrate 0-256 μM, room temperature 30 min; Michaelis-Menten fit; mean ± SD of n = 3 or 4; pH 7.4", "procedure": "as §1, §2, §3"}}}
{"substance": "PKAc (catalytic subunit of PKA, PKAcα 16-351) (Mus musculus)", "values": [{"measurement": "Km", "setting": "[1]", "value": "19.0 ± 6.7", "unit": "µM"}, {"measurement": "kcat", "setting": "[1]", "value": "16.2 ± 0.8", "unit": "s⁻¹"}, {"measurement": "kcat/Km", "setting": "[1]", "value": "900000 ± 300000", "unit": "M⁻¹ s⁻¹"}, {"measurement": "Km", "setting": "[2]", "value": "8.1 ± 2.5", "unit": "µM"}, {"measurement": "kcat", "setting": "[2]", "value": "15.5 ± 1.2", "unit": "s⁻¹"}, {"measurement": "kcat/Km", "setting": "[2]", "value": "1.9e+06 ± 600000", "unit": "M⁻¹ s⁻¹"}]}
